Laboratory results as given in patent publication US20230407373A1 (priority 2020, published 2023).
Read-outs that look alike come from different tables or passages of the source.

Tests used:
Type in all cases: binding
[1] = tested on: SARS-CoV-2 gRNA and sgRNAs; details: for target (unweighted spectral count in RNP capture): Probe II capture, LC-MS/MS LFQ; for background (unweighted spectral count in control): no-probe control pull-down, used as background for Probe II; for target (unweighted spectral count of the protein in the RNP capture experiment): LC-MS/MS label-free quantification, probe pool not given; for back-ground (unweighted spectral count of the protein in the control experiment): protein background of the control (e.g. no-probe) experiment
HCoV-OC43 gRNA and sgRNA = details: for target (unweighted spectral count, OC43 Probe II capture): type n_36_v, FDR<10%; for target (unweighted spectral count, OC43 Probe II capture) / target (unweighted spectral count): tested against no-probe control; for target (unweighted spectral count, OC43 Probe II) / background (unweighted spectral count, no-probe control): type n_48_v, 48 hpi; for target (unweighted spectral count, OC43 Probe II): OC43 Probe II capture on infected cells; for background (unweighted spectral count, no-probe control): no-probe control on infected cells; for target (unweighted spectral count): OC43 Probe II, infected cells
gRNA of HCoV-OC43 = details: type n_48_v: 48 hours post-infection; for target (spectral count, OC43 Probe I RNP capture): infected cells, unweighted spectral count; for background (spectral count, no-probe control): no-probe control on infected cells
SARS-CoV-2 gRNA = details: […]; LC-MS/MS; Probe I sample (first 199 lines of Table 2)

Molecule	target (unweighted spectral count in RNP capture) [1]	background (unweighted spectral count in control) [1]	target (unweighted spectral count, OC43 Probe II capture) (HCoV-OC43 gRNA and sgRNA; 36 hpi)	target (spectral count, OC43 Probe I RNP capture) (gRNA of HCoV-OC43)	background (spectral count, no-probe control) (gRNA of HCoV-OC43)	target (unweighted spectral count of the protein in the RNP capture) (SARS-CoV-2 gRNA)	target (unweighted spectral count of the protein in the RNP capture experiment) [1]	back-ground (unweighted spectral count of the protein in the control experiment) [1]	target (unweighted spectral count, OC43 Probe II) (HCoV-OC43 gRNA and sgRNA)	background (unweighted spectral count, no-probe control) (HCoV-OC43 gRNA and sgRNA)	target (unweighted spectral count) (HCoV-OC43 gRNA and sgRNA; 12 hpi (type n_12_v))	target (unweighted spectral count) (HCoV-OC43 gRNA and sgRNA; 24 hpi (type n_24_v))	target (spectral count) (HCoV-OC43 gRNA and sgRNA; type s_36_m, HCoV-OC43-infected HCT-8 cells, 36 hpi, Probe II)	background (spectral count) (HCoV-OC43 gRNA and sgRNA; type s_36_m, uninfected-probe control, 36 hpi, Probe II)
UBAP2L (protein, UniProt Q14157 1-1087, looked up) Ubiquitin-associated protein …: MMTSVGTNRARGNWEQPQNQNQTQHKQRPQATAEQIRLAQMISDHNDADFEEKVKQLIDITGKNQDECVIALHDCNGDVNRAINVLLEGNPDTHSWEMVGKKKGVSGQKDGGQTESNEEGKENRDRDRDYSRRRGGPPRRGRGASRGREFRGQENGLDGTKSGGPSGRGTERGRRGRGRGRGGSGRRGGRFSAQGMGTFNPADYAEPANTDDNYGNSSGNTWNNTGHFEPDDGTSAWRTATEEWGTEDWNEDLSETKIFTASNVSSVPLPAENVTITAGQRIDLAVLLGKTPSTMENDSSNLDPSQAPSLAQPLVFSNSKQTAISQPASGNTFSHHSMVSMLGKGFGDVGEAKGGSTTGSQFLEQFKTAQALAQLAAQHSQSGSTTTSSWDMGSTTQSPSLVQYDLKNPSDSAVHSPFTKRQAFTPSSTMMEVFLQEKSPAVATSTAAPPPPSSPLPSKSTSAPQMSPGSSDNQSSSPQPAQQKLKQQKKKASLTSKIPALAVEMPGSADISGLNLQFGALQFGSEPVLSDYESTPTTSASSSQAPSSLYTSTASESSSTISSNQSQESGYQSGPIQSTTYTSQNNAQGPLYEQRSTQTRRYPSSISSSPQKDLTQAKNGFSSVQATQLQTTQSVEGATGSAVKSDSPSTSSIPPLNETVSAASLLTTTNQHSSSLGGLSHSEEIPNTTTTQHSSTLSTQQNTLSSSTSSGRTSTSTLLHTSVESEANLHSSSSTFSTTSSTVSAPPPVVSVSSSLNSGSSLGLSLGSNSTVTASTRSSVATTSGKAPPNLPPGVPPLLPNPYIMAPGLLHAYPPQVYGYDDLQMLQTRFPLDYYSIPFPTPTTPLTGRDGSLASNPYSGDLTKFGRGDASSPAPATTLAQPQQNQTQTHHTTQQTFLNPALPPGYSYTSLPYYTGVPGLPSTFQYGPAVFPVAPTSSKQHGVNVSVNASATPFQQPSGYGSHGYNTGVSVTSSNTGVPDISGSVYSKTQQSFEKQGFHSGTPAASFNLPSALGSGGPINPATAAAYPPAPFMHILTPHQQPHSQILHHHLQQDGQTGSGQRSQTSSIPQKPQTNKSAYNSYSWGAN	17	1	5	6	1	–	–	–	–	–	–	–	–	–
DHX30 (protein, UniProt Q7L2E3 1-1194, looked up) ATP-dependent RNA helicase …: MFSLDSFRKDRAQHRQRQCKLPPPRLPPMCVNPTPGGTISRASRDLLKEFPQPKNLLNSVIGRALGISHAKDKLVYVHTNGPKKKKVTLHIKWPKSVEVEGYGSKKIDAERQAAAAACQLFKGWGLLGPRNELFDAAKYRVLADRFGSPADSWWRPEPTMPPTSWRQLNPESIRPGGPGGLSRSLGREEEEDEEEELEEGTIDVTDFLSMTQQDSHAPLRDSRGSSFEMTDDDSAIRALTQFPLPKNLLAKVIQIATSSSTAKNLMQFHTVGTKTKLSTLTLLWPCPMTFVAKGRRKAEAENKAAALACKKLKSLGLVDRNNEPLTHAMYNLASLRELGETQRRPCTIQVPEPILRKIETFLNHYPVESSWIAPELRLQSDDILPLGKDSGPLSDPITGKPYVPLLEAEEVRLSQSLLELWRRRGPVWQEAPQLPVDPHRDTILNAIEQHPVVVISGDTGCGKTTRIPQLLLERYVTEGRGARCNVIITQPRRISAVSVAQRVSHELGPSLRRNVGFQVRLESKPPSRGGALLFCTVGILLRKLQSNPSLEGVSHVIVDEVHERDVNTDFLLILLKGLQRLNPALRLVLMSATGDNERFSRYFGGCPVIKVPGFMYPVKEHYLEDILAKLGKHQYLHRHRHHESEDECALDLDLVTDLVLHIDARGEPGGILCFLPGWQEIKGVQQRLQEALGMHESKYLILPVHSNIPMMDQKAIFQQPPVGVRKIVLATNIAETSITINDIVHVVDSGLHKEERYDLKTKVSCLETVWVSRANVIQRRGRAGRCQSGFAYHLFPRSRLEKMVPFQVPEILRTPLENLVLQAKIHMPEKTAVEFLSKAVDSPNIKAVDEAVILLQEIGVLDQREYLTTLGQRLAHISTDPRLAKAIVLAAIFRCLHPLLVVVSCLTRDPFSSSLQNRAEVDKVKALLSHDSGSDHLAFVRAVAGWEEVLRWQDRSSRENYLEENLLYAPSLRFIHGLIKQFSENIYEAFLVGKPSDCTLASAQCNEYSEEEELVKGVLMAGLYPNLIQVRQGKVTRQGKFKPNSVTYRTKSGNILLHKSTINREATRLRSRWLTYFMAVKSNGSVFVRDSSQVHPLAVLLLTDGDVHIRDDGRRATISLSDSDLLRLEGDSRTVRLLKELRRALGRMVERSLRSELAALPPSVQEEHGQLLALLAELLRGPCGSFDVRKTADD	–	–	–	–	–	13	–	–	–	–	–	–	–	–
PURB (protein, UniProt Q96QR8 2-312, looked up) Transcriptional regulator …: ADGDSGSERGGGGGPCGFQPASRGGGEQETQELASKRLDIQNKRFYLDVKQNAKGRFLKIAEVGAGGSKSRLTLSMAVAAEFRDSLGDFIEHYAQLGPSSPEQLAAGAEEGGGPRRALKSEFLVRENRKYYLDLKENQRGRFLRIRQTVNRGGGGFGAGPGPGGLQSGQTIALPAQGLIEFRDALAKLIDDYGGEDDELAGGPGGGAGGPGGGLYGELPEGTSITVDSKRFFFDVGCNKYGVFLRVSEVKPSYRNAITVPFKAWGKFGGAFCRYADEMKEIQERQRDKLYERRGGGSGGGEESEGEEVDED	–	–	–	5	1	–	5	1	5	1	–	–	–	–
SYNCRIP: host protein, UniProt O60506 (protein, UniProt O60506 2-623, looked up) Heterogeneous nuclear …: ATEHVNGNGTEEPMDTTSAVIHSENFQTLLDAGLPQKVAEKLDEIYVAGLVAHSDLDERAIEALKEFNEDGALAVLQQFKDSDLSHVQNKSAFLCGVMKTYRQREKQGTKVADSSKGPDEAKIKALLERTGYTLDVTTGQRKYGGPPPDSVYSGQQPSVGTEIFVGKIPRDLFEDELVPLFEKAGPIWDLRLMMDPLTGLNRGYAFVTFCTKEAAQEAVKLYNNHEIRSGKHIGVCISVANNRLFVGSIPKSKTKEQILEEFSKVTEGLTDVILYHQPDDKKKNRGFCFLEYEDHKTAAQARRRLMSGKVKVWGNVGTVEWADPIEDPDPEVMAKVKVLFVRNLANTVTEEILEKAFSQFGKLERVKKLKDYAFIHFDERDGAVKAMEEMNGKDLEGENIEIVFAKPPDQKRKERKAQRQAAKNQMYDDYYYYGPPHMPPPTRGRGRGGRGGYGYPPDYYGYEDYYDYYGYDYHNYRGGYEDPYYGYEDFQVGARGRGGRGARGAAPSRGRGAAPPRGRAGYSQRGGPGSARGVRGARGGAQQQRGRGVRGARGGRGGNVGGKRKADGYNQPDSKRRQTNNQNWGSQPIAQQPLQGGDHSGNYGYKSENQEFYQDTFGQQWK	159	1	97	88	7	–	–	–	87	7	33	55	97	23
TIA1 (protein, UniProt P31483 1-386, looked up) Cytotoxic granule associated …: MEDEMPKTLYVGNLSRDVTEALILQLFSQIGPCKNCKMIMDTAGNDPYCFVEFHEHRHAAAALAAMNGRKIMGKEVKVNWATTPSSQKKDTSSSTVVSTQRSQDHFHVFVGDLSPEITTEDIKAAFAPFGRISDARVVKDMATGKSKGYGFVSFFNKWDAENAIQQMGGQWLGGRQIRTNWATRKPPAPKSTYESNTKQLSYDEVVNQSSPSNCTVYCGGVTSGLTEQLMRQTFSPFGQIMEIRVFPDKGYSFVRFNSHESAAHAIVSVNGTTIEGHVVKCYWGKETLDMINPVQQQNQIGYPQPYGQWGQWYGNAQQIGQYMPNGWQVPAYGMYGQAWNQQGFNQTQSSAPWMGPNYGVQPPQGQNGSMLPNQPSGYRVAGYETQ	11	1	6	–	–	–	–	–	–	–	–	–	–	–
CHTOP (protein, UniProt Q9Y3Y2 2-248, looked up) Chromatin target of PRMT1 …: AAQSAPKVVLKSTTKMSLNERFTNMLKNKQPTPVNIRASMQQQQQLASARNRRLAQQMENRPSVQAALKLKQSLKQRLGKSNIQARLGRPIGALARGAIGGRGLPIIQRGLPRGGLRGGRATRTLLRGGMSLRGQNLLRGGRAVAPRMGLRRGGVRGRGGPGRGGLGRGAMGRGGIGGRGRGMIGRGRGGFGGRGRGRGRGRGALARPVLTKEQLDNQLDAYMSKTKGHLDAELDAYMAQTDPETND	–	–	5	6	1	–	5	1	6	1	–	–	–	–
HNRNPC (protein, UniProt P07910 2-306, looked up) Heterogeneous nuclear …: ASNVTNKTDPRSMNSRVFIGNLNTLVVKKSDVEAIFSKYGKIVGCSVHKGFAFVQYVNERNARAAVAGEDGRMIAGQVLDINLAAEPKVNRGKAGVKRSAAEMYGSVTEHPSPSPLLSSSFDLDYDFQRDYYDRMYSYPARVPPPPPIARAVVPSKRQRVSGNTSRRGKSGFNSKSGQRGSSKSGKLKGDDLQAIKKELTQIKQKVDSLLENLEKIEKEQSKQAVEMKNDKSEEEQSSSSVKKDETNVKMESEGGADDSAEEGDLLDDDDNEDRGDDQLELIKDDEKEAEEGEDDRDSANGEDDS	75	2	69	–	19	–	–	–	88	19	30	40	–	–
